This is an account of results in PMC10708208 (Science Advances, 2023).

The target of test [1] is T1, F-actin (cryo-EM samples) ( (chicken and rabbit muscle …, UniProt P68139 1-377)). Kind of test: cryo-EM structure.
Test [2] concerns the target T1, F-actin (cryo-EM samples). Kind of test: cryo-EM structure. This is another data set of the same source.

Like-named read-outs stand apart in the source and are kept apart here.

B1: SipA^α (SipA_(497–669)) (domain or fragment)
chain: NKAGTTDNDNSQTDKTGPFSGLKFKQNSFLSTVPSVTNMHSMHFDARETFLGVIRKALEPDTSTPFPVRRAFDGLRAEILPNDTIKSAALKAQCSDIDKHPELKAKMETLKEVITHHPQKEKLAEIALQFAREAGLTRLKGETDYVLSNVLDGLIGDGSWRAGPAYESYLNKP
In the case of B1, the stoichiometry N – broadly, the number of molecules, sites or subunits per partner or assembly – in test [1] was 0.5 SipA per actin subunit (molar ratio).

B2: SipA^β (SipA_(426–685)) (domain or fragment)
chain: GETTSFDEVDGVTSKSIIGKPVQATVHGVDDNKQQSQTAEIVNVKPLASQLAGVENVKTDTLQSDTTVITGNKAGTTDNDNSQTDKTGPFSGLKFKQNSFLSTVPSVTNMHSMHFDARETFLGVIRKALEPDTSTPFPVRRAFDGLRAEILPNDTIKSAALKAQCSDIDKHPELKAKMETLKEVITHHPQKEKLAEIALQFAREAGLTRLKGETDYVLSNVLDGLIGDGSWRAGPAYESYLNKPGVDRVITTVDGLHMQR
As to B2, the “stoichiometry N” value in test [2] is 0.5 SipA per actin subunit (molar ratio).
